Results on 12 molecules are retold here after PMC3876041, “Screening of Peptide Ligands for Pyrroloquinoline Quinone Glucose Dehydrogenase Using Antagonistic Template-Based Biopanning” (International Journal of Molecular Sciences, 2013).

No end group written: not given here.

For series [1], the target named is T1, DEE-His (His-tagged V453D-Q454E-K455E GDH-B) (Acinetobacter calcoaceticus, UniProt P13650, K455E/Q454E/V453D).
T1 construct: 6-His (C); made in house
T1 sequence (P13650 25-478 V453D/Q454E/K455E): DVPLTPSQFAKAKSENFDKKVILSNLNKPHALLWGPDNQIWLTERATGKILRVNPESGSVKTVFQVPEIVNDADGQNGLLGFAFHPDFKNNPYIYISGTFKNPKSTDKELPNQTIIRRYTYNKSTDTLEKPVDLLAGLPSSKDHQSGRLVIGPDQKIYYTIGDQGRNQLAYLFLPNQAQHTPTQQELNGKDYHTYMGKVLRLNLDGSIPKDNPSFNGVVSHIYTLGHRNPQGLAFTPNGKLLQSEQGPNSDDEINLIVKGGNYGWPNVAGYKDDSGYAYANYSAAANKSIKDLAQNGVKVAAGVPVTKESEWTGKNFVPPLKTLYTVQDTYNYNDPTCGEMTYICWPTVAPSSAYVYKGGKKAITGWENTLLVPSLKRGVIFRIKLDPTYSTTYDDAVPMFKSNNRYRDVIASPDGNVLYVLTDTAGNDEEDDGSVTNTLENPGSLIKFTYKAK
The series is described as follows: SPR (BIAcore X) binding of immobilized synthesized peptides, DEE-His as analyte. The note with it: peptide on CM5 chip (amine coupling), analyte 5 nM to 90 μM in 10 mM MOPS–NaOH pH 7.0, less than 20 RU at any analyte concentration = not binding, read-out: Kd against DEE-His. The text has this:
(§1) The purity was greater than 95%.
Background: SPR reads the build-up and loss of mass on a sensor chip optically.

The target in series [2] is T2, HI (Y367H-N452I GDH-B) (Acinetobacter calcoaceticus, UniProt P13650, N452I/Y367H).
T2 construct: made in house; host or cells: Escherichia coli PP2418 / pTrc99A
T2 sequence (P13650 25-478 Y367H/N452I): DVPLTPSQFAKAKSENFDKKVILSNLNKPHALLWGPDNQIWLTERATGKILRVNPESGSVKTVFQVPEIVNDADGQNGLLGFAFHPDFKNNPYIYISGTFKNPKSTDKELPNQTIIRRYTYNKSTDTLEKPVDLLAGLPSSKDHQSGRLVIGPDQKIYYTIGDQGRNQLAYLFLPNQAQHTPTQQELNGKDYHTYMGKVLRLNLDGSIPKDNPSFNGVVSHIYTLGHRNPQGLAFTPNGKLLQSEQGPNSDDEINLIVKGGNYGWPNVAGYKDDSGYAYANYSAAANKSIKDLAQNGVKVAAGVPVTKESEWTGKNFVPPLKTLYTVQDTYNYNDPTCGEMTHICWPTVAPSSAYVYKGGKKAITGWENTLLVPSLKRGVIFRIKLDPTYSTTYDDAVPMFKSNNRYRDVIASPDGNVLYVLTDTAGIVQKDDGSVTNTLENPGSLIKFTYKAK
The series is described as follows: SPR (BIAcore X) binding of immobilized synthesized peptides, HI as analyte. The note with it: peptide on CM5 chip (amine coupling), analyte 5 nM to 90 μM in 10 mM MOPS–NaOH pH 7.0, less than 20 RU at any analyte concentration = not binding, read-out: Kd against HI.
Text: as §1

The target of series [3] is T3, wild-type water-soluble pyrroloquinoline quinone (PQQ) glucose dehydrogenase (GDH-B) (UniProt P13650 25-478).
T3 construct: water-soluble PQQ-dependent glucose dehydrogenase (GDH-B); structural gene in pTrc99A; Produced as apo-form in E. coli; PQQ and Ca2+ are added for activity assays; also called wild-type GDH-B; W.T; source: E. coli PP2418 (pTrc99A), purified as previously described (cation exchange chromatography)
T3 sequence (looked up): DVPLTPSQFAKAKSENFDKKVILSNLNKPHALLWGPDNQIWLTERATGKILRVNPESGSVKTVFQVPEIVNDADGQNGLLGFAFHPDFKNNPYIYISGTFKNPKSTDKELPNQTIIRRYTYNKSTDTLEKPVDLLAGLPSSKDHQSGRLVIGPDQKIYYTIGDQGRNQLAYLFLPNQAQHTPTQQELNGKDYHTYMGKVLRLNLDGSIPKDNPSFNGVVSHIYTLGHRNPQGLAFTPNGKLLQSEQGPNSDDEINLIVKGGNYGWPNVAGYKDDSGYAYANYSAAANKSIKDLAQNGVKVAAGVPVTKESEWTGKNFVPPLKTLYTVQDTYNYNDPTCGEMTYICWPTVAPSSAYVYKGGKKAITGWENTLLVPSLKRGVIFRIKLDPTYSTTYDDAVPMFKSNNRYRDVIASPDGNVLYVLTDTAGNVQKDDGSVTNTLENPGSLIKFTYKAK
Put plainly: SPR; BIAcore X; peptide immobilised on CM5 chip by amine coupling (320-2130 RU); analytes GDH-B, DEE-His or HI, five concentrations (5 nM to 90 uM) in 10 mM MOPS-NaOH pH 7.0, 10 uL/min to plateau; Kd from plateau RU against concentration (Scatchard); less than 20 RU at any concentration judged as not binding. The note with it: both partners purified.

Series [4] concerns the target T4, Y367H-N452I GDH-B (HI) (UniProt P13650 25-478, Y367H | N452I).
T4 construct: also called antagonistic template; source: E. coli PP2418 (pTrc99A), soluble, purified (Resource S cation exchange, Superdex 200 size exclusion chromatography)
T4 sequence: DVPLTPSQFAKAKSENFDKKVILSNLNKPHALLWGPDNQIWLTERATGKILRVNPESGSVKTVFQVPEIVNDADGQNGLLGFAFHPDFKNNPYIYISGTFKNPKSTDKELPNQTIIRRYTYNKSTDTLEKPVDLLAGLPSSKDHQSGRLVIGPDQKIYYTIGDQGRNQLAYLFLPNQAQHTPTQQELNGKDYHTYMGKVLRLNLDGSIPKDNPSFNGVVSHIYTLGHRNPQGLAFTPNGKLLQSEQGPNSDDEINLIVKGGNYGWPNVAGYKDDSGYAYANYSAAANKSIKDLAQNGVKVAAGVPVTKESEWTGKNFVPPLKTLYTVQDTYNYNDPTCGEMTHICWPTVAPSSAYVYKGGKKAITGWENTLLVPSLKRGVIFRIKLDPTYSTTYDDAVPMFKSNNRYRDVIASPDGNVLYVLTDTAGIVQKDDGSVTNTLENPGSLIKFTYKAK
Put plainly: SPR. The note with it: both partners purified.

The target in series [5] is T3, wild-type water-soluble …. The series is described as follows: enzyme inhibition assay; residual activity of 0.7 nM GDH-B for 50 mM D-glucose after 1 h incubation with various concentrations of peptide; DCIP/PMS, 10 mM MOPS-NaOH pH 7.0, PQQ, CaCl2; non-competitive dominant mixed inhibition. Particulars: both partners purified.
For series [6] the following is noted: decrease vs wild-type GDH-B, ref [36]; cited from earlier work. The text has this:
We, and other research groups, have been engaged in constructing of variety of mutant GDH-Bs in order to develop an ideal enzyme for glucose monitoring. For example, we have reported the Asn452Thr GDH-B mutant, showing approximately 50% lower activity for lactose and maltose than the wild-type GDH-B [36].

Series [7] can be described thus: Kinetic parameters of GDH-B and mutant enzymes. It counts as biochemical. The protocol:
GDH-B activity was measured using 0.06 mM 2,6-dichlorophenolindophenol (DCIP) and 0.6 mM phenazine methosulfate (PMS) following 30 min pre-incubation in 10 mM MOPS–NaOH buffer (pH 7.0) containing 1 μM PQQ and 1 mM CaCl2 at room temperature (25 °C). The enzyme activity was determined by measuring the decrease in absorbance of DCIP at 600 nm. For the inhibition assay, the residual activity of 0.7 nM GDH-B for 50 mM D-glucose was measured following 1 h incubation with various concentrations of each peptide. GDH-B activity in the absence of peptide was defined as 100%.

Where [8] appears, read: DCIP/PMS assay, 10 mM MOPS–NaOH pH 7.0, 1 μM PQQ, 1 mM CaCl2, 25 °C.

Turning to ELITNSETTQWF [HI3-2], in series [1], the Kd (usually the equilibrium constant for the complex coming apart) was more than 90 µM.
Consider LGDSSNSQVSLN [DEE4–5], for which the Kd in series [2] and in series [1] was more than 90 µM in each case.
On to NSTHHHHFATIW [DEE4–10], for which the Kd in series [2] and in series [1] was more than 90 µM each time.
With SDLSPIQSLSAI [DEE4–6], in series [1], the dissociation constant Kd is more than 90 µM.

B1: DEE4–5 synthesized 12-mer peptide (peptide)
peptide: LGDSSNSQVSLN
notes: 12-mer selected from the Ph.D.-12 phage display peptide library; Immobilised on a CM5 chip by amine coupling in the SPR; also called DEE3-4; source: synthetic peptide, bought: Sigma Aldrich Japan
Molecule B1 registered a Kd in series [3] of 13 µM.

B2: HI3-2 synthesized 12-mer peptide (peptide)
peptide: ELITNSETTQWF
notes: 12-mer selected from the Ph.D.-12 phage display peptide library; Immobilised on a CM5 chip by amine coupling in the SPR; source: synthetic peptide, bought: Sigma Aldrich Japan
Consider B2, for which the Kd in series [3] is 2.5 µM; in series [4], 88 µM.

B3: DEE4–10 synthesized 12-mer peptide (peptide)
peptide: NSTHHHHFATIW
notes: 12-mer selected from the Ph.D.-12 phage display peptide library; Immobilised on a CM5 chip by amine coupling in the SPR; also called HI4–6; source: synthetic peptide, bought: Sigma Aldrich Japan
For B3, binding in series [3] was characterised by a dissociation constant (Kd) of 0.7 µM. In series [5], the Ki (usually the equilibrium dissociation constant of an inhibitor or competing ligand from its target) worked out at 7.4 µM.

B4: DEE4–6 synthesized 12-mer peptide (peptide)
peptide: SDLSPIQSLSAI
notes: 12-mer selected from the Ph.D.-12 phage display peptide library; Immobilised on a CM5 chip by amine coupling in the SPR; also called DEE4–9; source: synthetic peptide, bought: Sigma Aldrich Japan
Take B4: the values for the Kd in series [3] and in series [4] were 2.5 µM and 230 µM, respectively.

B5: Asn452Thr GDH-B mutant: previously reported Asn452Thr GDH-B mutant, ref [36] (protein, UniProt P13650 25-478, looked up, variant N452T)
Quinoprotein glucose …: DVPLTPSQFAKAKSENFDKKVILSNLNKPHALLWGPDNQIWLTERATGKILRVNPESGSVKTVFQVPEIVNDADGQNGLLGFAFHPDFKNNPYIYISGTFKNPKSTDKELPNQTIIRRYTYNKSTDTLEKPVDLLAGLPSSKDHQSGRLVIGPDQKIYYTIGDQGRNQLAYLFLPNQAQHTPTQQELNGKDYHTYMGKVLRLNLDGSIPKDNPSFNGVVSHIYTLGHRNPQGLAFTPNGKLLQSEQGPNSDDEINLIVKGGNYGWPNVAGYKDDSGYAYANYSAAANKSIKDLAQNGVKVAAGVPVTKESEWTGKNFVPPLKTLYTVQDTYNYNDPTCGEMTYICWPTVAPSSAYVYKGGKKAITGWENTLLVPSLKRGVIFRIKLDPTYSTTYDDAVPMFKSNNRYRDVIASPDGNVLYVLTDTAGTVQKDDGSVTNTLENPGSLIKFTYKAK
In the case of B5, in series [6], the “lower activity for lactose than the wild-type” value was “approximately 50%” and the “lower activity for maltose than the wild-type” value was “approximately 50%”.

B6: HI: GDH-B mutant Y367H-N452I, antagonistic template (protein)
chain: DVPLTPSQFAKAKSENFDKKVILSNLNKPHALLWGPDNQIWLTERATGKILRVNPESGSVKTVFQVPEIVNDADGQNGLLGFAFHPDFKNNPYIYISGTFKNPKSTDKELPNQTIIRRYTYNKSTDTLEKPVDLLAGLPSSKDHQSGRLVIGPDQKIYYTIGDQGRNQLAYLFLPNQAQHTPTQQELNGKDYHTYMGKVLRLNLDGSIPKDNPSFNGVVSHIYTLGHRNPQGLAFTPNGKLLQSEQGPNSDDEINLIVKGGNYGWPNVAGYKDDSGYAYANYSAAANKSIKDLAQNGVKVAAGVPVTKESEWTGKNFVPPLKTLYTVQDTYNYNDPTCGEMTHICWPTVAPSSAYVYKGGKKAITGWENTLLVPSLKRGVIFRIKLDPTYSTTYDDAVPMFKSNNRYRDVIASPDGNVLYVLTDTAGIVQKDDGSVTNTLENPGSLIKFTYKAK
Take B6: in series [7] (setting [8]), the Km – broadly, the substrate concentration at which the rate is half of its maximum – came out at 18 mM and the Vmax turned out to be 170 U/mg protein.

B7: GDH-B: water-soluble pyrroloquinoline quinone (PQQ) dependent glucose dehydrogenase, wild type (protein)
chain: DVPLTPSQFAKAKSENFDKKVILSNLNKPHALLWGPDNQIWLTERATGKILRVNPESGSVKTVFQVPEIVNDADGQNGLLGFAFHPDFKNNPYIYISGTFKNPKSTDKELPNQTIIRRYTYNKSTDTLEKPVDLLAGLPSSKDHQSGRLVIGPDQKIYYTIGDQGRNQLAYLFLPNQAQHTPTQQELNGKDYHTYMGKVLRLNLDGSIPKDNPSFNGVVSHIYTLGHRNPQGLAFTPNGKLLQSEQGPNSDDEINLIVKGGNYGWPNVAGYKDDSGYAYANYSAAANKSIKDLAQNGVKVAAGVPVTKESEWTGKNFVPPLKTLYTVQDTYNYNDPTCGEMTYICWPTVAPSSAYVYKGGKKAITGWENTLLVPSLKRGVIFRIKLDPTYSTTYDDAVPMFKSNNRYRDVIASPDGNVLYVLTDTAGNVQKDDGSVTNTLENPGSLIKFTYKAK
Turning to B7, in series [7] (setting [8]), the Km turned out to be 25 mM and the Vmax is on record as 5200 U/mg protein.

B8: GB-His: GDH-B fused with 6-His tag to the C-terminal (protein)
chain: DVPLTPSQFAKAKSENFDKKVILSNLNKPHALLWGPDNQIWLTERATGKILRVNPESGSVKTVFQVPEIVNDADGQNGLLGFAFHPDFKNNPYIYISGTFKNPKSTDKELPNQTIIRRYTYNKSTDTLEKPVDLLAGLPSSKDHQSGRLVIGPDQKIYYTIGDQGRNQLAYLFLPNQAQHTPTQQELNGKDYHTYMGKVLRLNLDGSIPKDNPSFNGVVSHIYTLGHRNPQGLAFTPNGKLLQSEQGPNSDDEINLIVKGGNYGWPNVAGYKDDSGYAYANYSAAANKSIKDLAQNGVKVAAGVPVTKESEWTGKNFVPPLKTLYTVQDTYNYNDPTCGEMTYICWPTVAPSSAYVYKGGKKAITGWENTLLVPSLKRGVIFRIKLDPTYSTTYDDAVPMFKSNNRYRDVIASPDGNVLYVLTDTAGNVQKDDGSVTNTLENPGSLIKFTYKAK
modifications: left off: His6, C-terminal, kept
notes: GDH-B fused with 6-His tag to the C-terminal
As for B8, in series [7] (pH 7), the Km was 24 mM and the Vmax amounted to 3950 U/mg protein.
